Experimental data from patent US20240360214A1 (Pfizer, published 2024).

Experiments:
[1] = biological target: T1, LILRB2 expressed on THP1 cells (human, UniProt Q8N423 22-597); assay: flow cytometry competition with PE HLA-G tetramer on THP1-LILRB2 cells
T1 construct: whole, on cells; also called THP1 LILRB2 expressing cells; THP1-LILRB2 cells
Experimental: (§1) LILRB1 or LILRB2 overexpressing THP1 cells were prepared in FACS buffer (0.5% BSA in PBS) and seeded in 100 μl/well (96 well plate) at 1λ10⁶ cells/ml concentration. The tested antibodies were serially diluted 3-fold into assay buffer starting from 200 nM. 40 μl of serial diluted antibody together with 40 μl of PE labelled HLA-G tetramer (FRED HUTCH IMT40509) at 2 ug/ml were added to each well and incubated on ice for 1 hour. The cells were washed 2 times with FACS buffer and resuspended in 50 μl/well FACS buffer containing 1:1000 dilution of LIVE/Dead fixable violet dead cell stain (Invitrogen #L34964), incubated on ice for 15 minutes. The cells were then washed with FACS buffer for 2 times and resuspended in 80 μl of Cytofix buffer (BD Cat #554655).
(§2) The cell-based HLA-G ligand blocking assays followed the same procedure as described in Example 2.

[2] = biological target: T2, LILRB1 expressed on THP1 cells (human, UniProt Q8NHL6 24-650); assay: flow cytometry competition with PE HLA-G tetramer on THP1-LILRB1 cells
T2 construct: whole, on cells; also called THP1 LILRB1 expressing cells; THP1-LILRB1 cells
Experimental: as §1, §2

T2 sequence (Q8NHL6 24-650): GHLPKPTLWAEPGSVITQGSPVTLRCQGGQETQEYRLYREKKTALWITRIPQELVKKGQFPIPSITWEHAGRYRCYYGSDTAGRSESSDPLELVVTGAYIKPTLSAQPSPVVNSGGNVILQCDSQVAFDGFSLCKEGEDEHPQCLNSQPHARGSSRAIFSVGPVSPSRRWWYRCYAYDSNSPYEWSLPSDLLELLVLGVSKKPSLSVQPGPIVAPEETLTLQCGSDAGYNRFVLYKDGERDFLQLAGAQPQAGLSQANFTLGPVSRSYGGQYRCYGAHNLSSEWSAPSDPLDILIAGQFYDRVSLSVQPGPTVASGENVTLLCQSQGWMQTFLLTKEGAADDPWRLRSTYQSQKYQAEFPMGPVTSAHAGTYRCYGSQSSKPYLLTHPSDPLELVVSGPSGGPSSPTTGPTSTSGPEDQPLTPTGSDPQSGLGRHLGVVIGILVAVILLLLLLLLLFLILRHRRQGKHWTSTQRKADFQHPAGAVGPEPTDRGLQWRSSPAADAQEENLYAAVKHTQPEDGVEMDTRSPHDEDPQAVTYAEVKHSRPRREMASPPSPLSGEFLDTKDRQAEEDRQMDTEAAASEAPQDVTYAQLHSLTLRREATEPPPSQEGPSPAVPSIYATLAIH
T1 sequence (Q8N423 22-597): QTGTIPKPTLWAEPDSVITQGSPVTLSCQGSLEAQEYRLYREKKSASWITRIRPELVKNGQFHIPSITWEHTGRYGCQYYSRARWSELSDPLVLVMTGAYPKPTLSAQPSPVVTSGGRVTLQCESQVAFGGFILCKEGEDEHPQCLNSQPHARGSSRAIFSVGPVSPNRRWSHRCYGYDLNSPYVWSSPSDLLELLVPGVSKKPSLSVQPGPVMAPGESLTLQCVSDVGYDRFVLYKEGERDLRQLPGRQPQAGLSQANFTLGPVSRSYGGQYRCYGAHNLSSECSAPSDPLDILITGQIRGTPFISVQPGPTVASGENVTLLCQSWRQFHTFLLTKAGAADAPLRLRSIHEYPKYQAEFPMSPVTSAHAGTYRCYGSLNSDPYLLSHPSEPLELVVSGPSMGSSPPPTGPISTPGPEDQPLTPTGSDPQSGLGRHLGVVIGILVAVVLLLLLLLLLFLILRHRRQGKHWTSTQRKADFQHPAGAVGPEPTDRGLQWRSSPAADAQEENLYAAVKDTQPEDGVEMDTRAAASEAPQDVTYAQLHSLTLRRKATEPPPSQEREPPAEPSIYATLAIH

B1: LILRB1xLILRB2 bispecific antibody BsAb-1880 (bispecific antibody, human IgG1)
heavy 1: not shown
light 1: SYELTQPPSVSVSPGQTASITCGGNNIGSKGVHWYQQKPGQSPVLVISYDSDRPSGIPERFSGSNSGNTATLTISGTQAMDEADYYCQVWDSSTRVFGTGTKVTVLGQPKAAPSVTLFPPSSEELQANKATLVCLISDFYPGAVTVAWKADSSPVKAGVETTTPSKQSNNKYAASSYLSLTPEQWKSHRSYSCQVTHEGSTVEKTVAPTECS
heavy 2: EVQLLESGGGLVQPGGSLRLSCAASGFTFSSYAMSWVRQAPGKGLEWVSAISGSGGSTYYADSVKGRFTISRDNSKNTLYLQMNSLRAEDTAVYYCWRWLNLGDAFDIWGQGTMVTVSSASTKGPSVFPLAPSSKSTSGGTAALGCLVKDYFPEPVTVSWNSGALTSGVHTFPAVLQSSGLYSLSSVVTVPSSSLGTQTYICNVNHKPSNTKVDKKVEPKSCEKTHTCPPCPAPEAAGAPSVFLFPPKPKDTLMISRTPEVTCVVVDVSHEDPEVKFNWYVDGVEVHNAKTKPREEQYNSTYRVVSVLTVLHQDWLNGKEYKCKVSNKALPAPIEKTISKAKGQPREPQVYTLPPSREEMTKNQVSLTCEVKGFYPSDIAVEWESNGQPENNYKTTPPVLDSDGSFFLYSKLTVDKSRWQQGNVFSCSVMHEALHNHYTQKSLSLSPGK
light 2: not shown
IC50 [1]: 0.0161 µM
IC50 [2]: 0.0432 µM
